From paper doi:10.1101/2025.08.25.672131
One block for each substance: values may come before it.

Columns and labels:
CREB-bZIP-L318V (human) [1] = assay: other fluorescence titration
CREB-bZIP-L318V (human) [2] = assay: stopped-flow fluorescence out-competition
CREB-bZIP-L332V (human) = assay: other fluorescence titration
[3] = molecular target: CREB-bZIP (bZIP domain of human CREB1, residues 277-339 of CREB-A) (human); assay: stopped-flow intrinsic tyrosine fluorescence, urea refolding kinetics

fold increase of Kd,M-M against CREB-bZIP (CREB-bZIP-L318V (human) [1]): 1000 fold
k+,M-M.CRE (association of a monomer with CRE-bound monomer, inferred) (CREB-bZIP-L318V (human) [2]): 5e+09 M⁻¹ s⁻¹
k-,M-M.CRE (dissociation of a monomer from the CRE-bound dimer) (CREB-bZIP-L318V (human) [2]): 0.079 s⁻¹
Substance: CREB-bZIP-L318V (domain or fragment)

fold increase of Kd,M-M against CREB-bZIP (CREB-bZIP-L332V (human)): 100 fold
Substance: CREB-bZIP-L332V (domain or fragment)

Kd [3]: 5.7 nM
koff [3]: 0.029 s⁻¹
kon [3]: 1e+07 M⁻¹ s⁻¹
Substance: CREB-bZIP (bZIP domain of human CREB1, residues 277-339 of CREB-A) (domain or fragment)
